{
  "source": "paper PMC2836971",
  "molecular_target": "Myc-tagged Emi2-C RL^+ mutant (only the RL motif intact; D-box and ZBR mutated) (Xenopus) (UniProt Q8AXF4)",
  "assay": "co-IP",
  "data": [
    {"substance": "Cdc27 (APC/C core subunit), endogenous in Xenopus CSF extracts (natural protein)", "values": [
      {"measurement": "percent less strongly associated with Cdc27 than the WT", "value": 50, "unit": "%"}
    ]}
  ]
}
